Legend:
Details in all cases: 200 nM
[1] = biological target: T1, Stb5 (Saccharomyces cerevisiae) (UniProt P38699)
T1 sequence: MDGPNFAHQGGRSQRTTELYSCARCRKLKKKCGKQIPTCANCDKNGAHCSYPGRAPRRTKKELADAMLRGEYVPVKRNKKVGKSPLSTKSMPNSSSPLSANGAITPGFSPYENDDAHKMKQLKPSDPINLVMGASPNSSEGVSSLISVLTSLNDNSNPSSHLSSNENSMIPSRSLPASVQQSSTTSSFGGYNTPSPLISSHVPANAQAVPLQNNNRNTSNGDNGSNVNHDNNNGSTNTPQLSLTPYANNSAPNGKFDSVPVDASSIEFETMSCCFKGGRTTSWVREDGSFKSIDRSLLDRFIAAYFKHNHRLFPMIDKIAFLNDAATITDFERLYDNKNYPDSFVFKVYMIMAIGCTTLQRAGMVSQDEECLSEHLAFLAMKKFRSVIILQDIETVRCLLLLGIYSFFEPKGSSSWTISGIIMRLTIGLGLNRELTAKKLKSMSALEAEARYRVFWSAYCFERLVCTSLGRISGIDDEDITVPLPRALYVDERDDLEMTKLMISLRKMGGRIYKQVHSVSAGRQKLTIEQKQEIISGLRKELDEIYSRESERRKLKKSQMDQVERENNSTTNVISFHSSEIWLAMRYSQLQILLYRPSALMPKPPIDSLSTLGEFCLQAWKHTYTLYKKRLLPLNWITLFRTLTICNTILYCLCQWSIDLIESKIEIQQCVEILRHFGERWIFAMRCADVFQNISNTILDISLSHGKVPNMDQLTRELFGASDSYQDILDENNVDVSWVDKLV

[2] = biological target: T2, Pdr3 (Saccharomyces cerevisiae) (UniProt P33200)
T2 sequence: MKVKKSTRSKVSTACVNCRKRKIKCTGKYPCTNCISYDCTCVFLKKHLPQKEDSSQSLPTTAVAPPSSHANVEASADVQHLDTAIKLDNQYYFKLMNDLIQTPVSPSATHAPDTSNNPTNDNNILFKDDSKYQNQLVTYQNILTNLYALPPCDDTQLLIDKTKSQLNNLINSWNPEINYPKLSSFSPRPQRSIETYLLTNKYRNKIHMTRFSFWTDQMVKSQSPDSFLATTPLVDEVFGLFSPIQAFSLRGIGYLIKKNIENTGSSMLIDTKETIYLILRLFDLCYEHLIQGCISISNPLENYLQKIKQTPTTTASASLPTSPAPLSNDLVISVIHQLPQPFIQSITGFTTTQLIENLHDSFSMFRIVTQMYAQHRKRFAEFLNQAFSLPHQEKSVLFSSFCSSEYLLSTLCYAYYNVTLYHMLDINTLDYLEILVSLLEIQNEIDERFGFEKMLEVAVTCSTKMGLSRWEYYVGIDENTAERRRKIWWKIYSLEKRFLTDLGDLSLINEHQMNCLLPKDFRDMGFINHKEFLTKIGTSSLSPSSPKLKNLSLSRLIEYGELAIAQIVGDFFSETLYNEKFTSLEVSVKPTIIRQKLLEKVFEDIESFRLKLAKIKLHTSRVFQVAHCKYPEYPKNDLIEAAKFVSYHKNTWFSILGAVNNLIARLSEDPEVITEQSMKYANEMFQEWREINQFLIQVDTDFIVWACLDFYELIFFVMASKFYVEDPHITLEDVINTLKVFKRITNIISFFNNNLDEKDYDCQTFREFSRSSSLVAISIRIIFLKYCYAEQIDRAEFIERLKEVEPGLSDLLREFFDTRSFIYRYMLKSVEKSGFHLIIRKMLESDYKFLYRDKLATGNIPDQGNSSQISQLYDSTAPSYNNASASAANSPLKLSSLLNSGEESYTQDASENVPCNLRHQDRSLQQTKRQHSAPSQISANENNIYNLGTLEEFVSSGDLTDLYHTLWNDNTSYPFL

[3] = biological target: T3, Sko1 (Saccharomyces cerevisiae) (UniProt Q02100)
T3 sequence: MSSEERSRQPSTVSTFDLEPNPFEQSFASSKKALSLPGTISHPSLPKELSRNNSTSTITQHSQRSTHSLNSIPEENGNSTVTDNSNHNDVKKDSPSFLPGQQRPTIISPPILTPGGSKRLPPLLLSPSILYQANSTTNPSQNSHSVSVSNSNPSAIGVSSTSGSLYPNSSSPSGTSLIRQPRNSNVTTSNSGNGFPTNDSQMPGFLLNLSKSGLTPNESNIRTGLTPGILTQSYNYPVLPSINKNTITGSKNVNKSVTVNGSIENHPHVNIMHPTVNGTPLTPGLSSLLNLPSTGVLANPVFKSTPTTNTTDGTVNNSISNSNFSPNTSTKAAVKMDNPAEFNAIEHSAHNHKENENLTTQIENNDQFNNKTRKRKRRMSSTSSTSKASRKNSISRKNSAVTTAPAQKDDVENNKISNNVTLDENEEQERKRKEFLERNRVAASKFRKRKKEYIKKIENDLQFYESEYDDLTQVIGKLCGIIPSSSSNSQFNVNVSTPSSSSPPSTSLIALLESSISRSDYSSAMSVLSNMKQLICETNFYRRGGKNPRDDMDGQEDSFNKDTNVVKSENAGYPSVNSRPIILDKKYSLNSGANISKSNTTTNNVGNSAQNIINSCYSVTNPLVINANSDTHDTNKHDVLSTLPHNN

[4] = biological target: T4, Stp1 (Saccharomyces cerevisiae) (UniProt Q00947)
T4 sequence: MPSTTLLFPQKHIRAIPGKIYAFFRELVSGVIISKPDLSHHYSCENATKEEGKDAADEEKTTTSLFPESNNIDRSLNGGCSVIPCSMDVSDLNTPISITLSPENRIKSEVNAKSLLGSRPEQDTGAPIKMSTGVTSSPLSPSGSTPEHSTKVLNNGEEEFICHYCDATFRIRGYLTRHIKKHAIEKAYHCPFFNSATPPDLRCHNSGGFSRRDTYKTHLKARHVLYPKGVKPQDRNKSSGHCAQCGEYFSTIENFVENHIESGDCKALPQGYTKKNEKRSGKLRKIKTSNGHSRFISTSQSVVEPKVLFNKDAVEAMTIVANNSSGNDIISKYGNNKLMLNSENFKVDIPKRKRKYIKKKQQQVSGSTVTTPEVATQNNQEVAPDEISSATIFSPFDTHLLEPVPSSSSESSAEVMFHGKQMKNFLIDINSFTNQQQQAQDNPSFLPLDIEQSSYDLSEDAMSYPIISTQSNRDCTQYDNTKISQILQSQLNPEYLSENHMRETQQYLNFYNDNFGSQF

[5] = biological target: T5, Msn1 (Saccharomyces cerevisiae) (UniProt P22148)
T5 sequence: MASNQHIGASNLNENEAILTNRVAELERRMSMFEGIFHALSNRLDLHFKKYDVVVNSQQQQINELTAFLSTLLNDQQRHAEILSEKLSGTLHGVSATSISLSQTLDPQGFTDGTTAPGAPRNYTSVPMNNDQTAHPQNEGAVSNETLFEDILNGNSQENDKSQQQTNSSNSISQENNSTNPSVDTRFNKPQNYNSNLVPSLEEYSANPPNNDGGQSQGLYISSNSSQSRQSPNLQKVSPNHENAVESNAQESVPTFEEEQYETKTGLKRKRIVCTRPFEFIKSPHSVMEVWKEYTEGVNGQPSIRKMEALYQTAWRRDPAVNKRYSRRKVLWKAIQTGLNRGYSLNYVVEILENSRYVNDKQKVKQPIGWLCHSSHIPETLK

AAACACCG (double strand) [8-mer AAACACCG]
binding signal (PBM E-score (-0.5 to 0.5)) [1]: 0.491

AACACCGC (double strand) [8-mer AACACCGC]
binding signal (PBM E-score (-0.5 to 0.5)) [1]: 0.48

AACCCCGC (double strand) [8-mer AACCCCGC]
binding signal (PBM E-score (-0.5 to 0.5)) [1]: 0.484

AACGGAAC (double strand) [8-mer AACGGAAC]
binding signal (PBM E-score (-0.5 to 0.5)) [2]: 0.49

AATGACGT (double strand) [8-mer AATGACGT]
binding signal (PBM E-score (-0.5 to 0.5)) [3]: 0.498

ACACGGCA (double strand) [8-mer ACACGGCA]
binding signal (PBM E-score (-0.5 to 0.5)) [4]: 0.49

ACCCGCGG (double strand) [8-mer ACCCGCGG]
binding signal (PBM E-score (-0.5 to 0.5)) [2]: 0.497

ACGGCACT (double strand) [8-mer ACGGCACT]
binding signal (PBM E-score (-0.5 to 0.5)) [4]: 0.489

ACGGCGCC (double strand) [8-mer ACGGCGCC]
binding signal (PBM E-score (-0.5 to 0.5)) [4]: 0.49

ACGGCGCG (double strand) [8-mer ACGGCGCG]
binding signal (PBM E-score (-0.5 to 0.5)) [4]: 0.492

ACGTCATA (double strand) [8-mer ACGTCATA]
binding signal (PBM E-score (-0.5 to 0.5)) [3]: 0.498

ACGTCATC (double strand) [8-mer ACGTCATC]
binding signal (PBM E-score (-0.5 to 0.5)) [3]: 0.498

ACGTCATG (double strand) [8-mer ACGTCATG]
binding signal (PBM E-score (-0.5 to 0.5)) [3]: 0.497

ATACGGCG (double strand) [8-mer ATACGGCG]
binding signal (PBM E-score (-0.5 to 0.5)) [4]: 0.49

ATACGTCA (double strand) [8-mer ATACGTCA]
binding signal (PBM E-score (-0.5 to 0.5)) [3]: 0.494

ATCCGCGG (double strand) [8-mer ATCCGCGG]
binding signal (PBM E-score (-0.5 to 0.5)) [2]: 0.496

ATGACGTA (double strand) [8-mer ATGACGTA]
binding signal (PBM E-score (-0.5 to 0.5)) [3]: 0.5

ATGACGTC (double strand) [8-mer ATGACGTC]
binding signal (PBM E-score (-0.5 to 0.5)) [3]: 0.497

ATGACGTG (double strand) [8-mer ATGACGTG]
binding signal (PBM E-score (-0.5 to 0.5)) [3]: 0.496

ATGTCCTA (double strand) [8-mer ATGTCCTA]
binding signal (PBM E-score (-0.5 to 0.5)) [5]: 0.497

ATTTGTCC (double strand) [8-mer ATTTGTCC]
binding signal (PBM E-score (-0.5 to 0.5)) [5]: 0.498

CACGGCAC (double strand) [8-mer CACGGCAC]
binding signal (PBM E-score (-0.5 to 0.5)) [4]: 0.491

CCCCGCGG (double strand) [8-mer CCCCGCGG]
binding signal (PBM E-score (-0.5 to 0.5)) [2]: 0.492

CCCGCGGA (double strand) [8-mer CCCGCGGA]
binding signal (PBM E-score (-0.5 to 0.5)) [2]: 0.498

CCCGCGGG (double strand) [8-mer CCCGCGGG]
binding signal (PBM E-score (-0.5 to 0.5)) [2]: 0.498

CCGCGGAA (double strand) [8-mer CCGCGGAA]
binding signal (PBM E-score (-0.5 to 0.5)) [2]: 0.499

CCGCGGAC (double strand) [8-mer CCGCGGAC]
binding signal (PBM E-score (-0.5 to 0.5)) [2]: 0.495

CCGCGGAG (double strand) [8-mer CCGCGGAG]
binding signal (PBM E-score (-0.5 to 0.5)) [2]: 0.498

CCGCGGCA (double strand) [8-mer CCGCGGCA]
binding signal (PBM E-score (-0.5 to 0.5)) [2]: 0.49

CCGCGGGA (double strand) [8-mer CCGCGGGA]
binding signal (PBM E-score (-0.5 to 0.5)) [2]: 0.499

CGCGGAAC (double strand) [8-mer CGCGGAAC]
binding signal (PBM E-score (-0.5 to 0.5)) [2]: 0.491

CGGACTTA (double strand) [8-mer CGGACTTA]
binding signal (PBM E-score (-0.5 to 0.5)) [1]: 0.483

CGGAGATA (double strand) [8-mer CGGAGATA]
binding signal (PBM E-score (-0.5 to 0.5)) [1]: 0.48

CGGCACTA (double strand) [8-mer CGGCACTA]
binding signal (PBM E-score (-0.5 to 0.5)) [1]: 0.481

CGGCATTA (double strand) [8-mer CGGCATTA]
binding signal (PBM E-score (-0.5 to 0.5)) [1]: 0.489

CGGCCTTA (double strand) [8-mer CGGCCTTA]
binding signal (PBM E-score (-0.5 to 0.5)) [1]: 0.481

CGGCGTTA (double strand) [8-mer CGGCGTTA]
binding signal (PBM E-score (-0.5 to 0.5)) [1]: 0.49

CGGGGTTA (double strand) [8-mer CGGGGTTA]
binding signal (PBM E-score (-0.5 to 0.5)) [1]: 0.495

CGGTCTTA (double strand) [8-mer CGGTCTTA]
binding signal (PBM E-score (-0.5 to 0.5)) [1]: 0.48

CGGTGATA (double strand) [8-mer CGGTGATA]
binding signal (PBM E-score (-0.5 to 0.5)) [1]: 0.488

CGGTGCTA (double strand) [8-mer CGGTGCTA]
binding signal (PBM E-score (-0.5 to 0.5)) [1]: 0.488

CGGTGTTA (double strand) [8-mer CGGTGTTA]
binding signal (PBM E-score (-0.5 to 0.5)) [1]: 0.496

CTACGTCA (double strand) [8-mer CTACGTCA]
binding signal (PBM E-score (-0.5 to 0.5)) [3]: 0.493

GAATGTCC (double strand) [8-mer GAATGTCC]
binding signal (PBM E-score (-0.5 to 0.5)) [5]: 0.494

GCCGCGGA (double strand) [8-mer GCCGCGGA]
binding signal (PBM E-score (-0.5 to 0.5)) [2]: 0.495

GGACAAAA (double strand) [8-mer GGACAAAA]
binding signal (PBM E-score (-0.5 to 0.5)) [5]: 0.494

GGACAAAC (double strand) [8-mer GGACAAAC]
binding signal (PBM E-score (-0.5 to 0.5)) [5]: 0.491

GGGACAAA (double strand) [8-mer GGGACAAA]
binding signal (PBM E-score (-0.5 to 0.5)) [5]: 0.496

GTGACGTA (double strand) [8-mer GTGACGTA]
binding signal (PBM E-score (-0.5 to 0.5)) [3]: 0.494

TGACGTCA (double strand) [8-mer TGACGTCA]
binding signal (PBM E-score (-0.5 to 0.5)) [3]: 0.499

TGGACAAA (double strand) [8-mer TGGACAAA]
binding signal (PBM E-score (-0.5 to 0.5)) [5]: 0.493

From article PMC3334620
